Experimental findings from article PMC6163455, “β-Lactamase Tools for Establishing Cell Internalization and Cytosolic Delivery of Cell Penetrating Peptides” (Biomolecules, 2018) are described below.

In this experiment the target is T1, SpyCatcher_β-lactamase protein ( | E. coli).
T1 construct: N-terminal leader as printed; TEM-1 β-lactamase of Escherichia coli without its signal peptide; C-terminal tail as printed; Printed mass 42.4 kDa; also called SpyC_β-lactamase; source: E. coli BL21 (DE3) Gold, purified (IMAC, SEC)
Nature of the experiment: SpyTag/SpyCatcher covalent conjugation (isopeptide bond), analysed by SDS-PAGE; peptide:protein ratio 1.125:1 or 1.25:1, 50 µM SpyC_BLA; 50 mM HEPES, 200 mM NaCl, pH 7.0; 2 h at room temperature and/or overnight at 4 °C; conjugation efficiencies analysed on 4-12% NuPAGE Bis-Tris gels; conjugates then used for uptake into CHO-K1 and T47D cells. To be noted: both partners purified.

B1: 0167_SpyT (peptide)
peptide: PSSTPATNVARPRLNPIRGHKFALAVPNSRTRGASAHIVMVDAYKPTKG
notes: phylomer CPP 0167, discovered from phylomer peptide libraries; source: synthetic peptide (Pepscan or Mimotopes)
For the molecule B1, the binding result was “binds”.

B2: 1869_SpyT (peptide)
peptide: PPHPRPLPAPAQSRKKQKGRAGRGHEKTGASVLRGPQKPHPLPAQLRGASAHIVMVDAYKPTKG
notes: phylomer CPP 1869, discovered from phylomer peptide libraries; source: synthetic peptide (Pepscan or Mimotopes)
On to B2, for which the binding result is “binds”.

B3: 1746_SpyT (peptide)
peptide: PLKPKKPKTQEKKKKQPPKPKKPKTQEKKKKQPPKPKRGASAHIVMVDAYKPTKG
notes: source: synthetic peptide (Pepscan or Mimotopes)
On to B3, for which the binding result is reported as “binds”.

B4: 0084_SpyT (peptide)
peptide: RKQKSLQTKLAENPPVPRKKRQSRPRWKQWLQKGASAHIVMVDAYKPTKG
notes: phylomer CPP 0084, discovered from phylomer peptide libraries; source: synthetic peptide (Pepscan or Mimotopes)
Turning to B4, the binding result is “binds”.

B5: 0169_SpyT (peptide)
peptide: PLTQRTLQRGKKPKQRQNWKKARTSSAKTAPKTVVSRTTSQRKGASAHIVMVDAYKPTKG
notes: phylomer CPP 0169, discovered from phylomer peptide libraries; source: synthetic peptide (Pepscan or Mimotopes)
B5: the binding result is “binds”.

B6: 1746c27_SpyT (peptide)
peptide: KKKKQPPKPKKPKTQEKKKKQPPKPKRGASAHIVMVDAYKPTKG
notes: phylomer CPP 1746c27, discovered from phylomer peptide libraries; source: synthetic peptide (Pepscan or Mimotopes)
Take B6: the binding result was “binds”.

B7: 1788_SpyT (peptide)
peptide: LFVDKATPQIYYTPSESVTVKSKGKNRRKKSGASAHIVMVDAYKPTKG
notes: phylomer CPP 1788, discovered from phylomer peptide libraries; source: synthetic peptide (Pepscan or Mimotopes)
Take B7: the binding result is “binds”.

B8: TAT_SpyT (peptide)
peptide: GRKKRRQRRRGASAHIVMVDAYKPTKG
notes: canonical CPP TAT; source: synthetic peptide (Pepscan or Mimotopes)
Consider B8, for which the binding result is recorded as “binds”.
